According to US20230250154A1:
Values belong to the binder of their own block, whether it stands above or below them.

Target: Protease Mixtures
Test: cell-based or functional assay

Protease Inhibition (% of WT); Protease Mixtures, IGD Substrate: 150 % of WT
B1: Variant A2M, bait region SEQ ID NO 131, P01023 24-1474 (protein)
chain: SVSGKPQYMVLVPSLLHTETTEKGCVLLSYLNETVTVSASLESVRGNRSLFTDLEAENDVLHCVAFAVPKSSSNEEVMFLTVQVKGPTQEFKKRTTVMVKNEDSLVFVQTDKSIYKPGQTVKFRVVSMDENFHPLNELIPLVYIQDPKGNRIAQWQSFQLEGGLKQFSFPLSSEPFQGSYKVVVQKKSGGRTEHPFTVEEFVLPKFEVQVTVPKIITILEEEMNVSVCGLYTYGKPVPGHVTVSICRKYSDASDCHGEDSQAFCEKFSGQLNSHGCFYQQVKTKVFQLKRKEYEMKLHTEAQIQEEGTVVELTGRQSSEITRTITKLSFVKVDSHFRQGIPFFGQVRLVDGKGVPIPNKVIFIRGNEANYYSNATTDEHGLVQFSINTTNVMGTSLTVRVNYKDRSPCYGYQWVSEEHEEAHHTAYLVFSPSKSFVHLEPMSHELPCGHTQTVQAHYILNGGTLLGLKKLSFYYLIMAKGGIVRTGTHGLLVKQEDMKGHFSISIPVKSDIAPVARLLIYAVLPTGDVIGDSAKYDVENCLANKVDLSFSPSQSLPASHAHLRVTAAPQSVCALRAVDQSVLLMKPDAELSASSVYNLLPEKDLTGFPGPLNDQDDEDCINRHNVYINGITYTPVSSTNEKDMYSFLEDMGLKAFTNSKIRKPKMCPQLEQYEMHGPEGEGEGEGISEDLVVQIPENFFGVKEEEGLGSVEEPHTKLRKYFPETWIWDLVVVNSAGVAEVGVTVPDTITEWKAGAFCLSEDAGLGISSTASLRAFQPFFVELTMPYSVIRGEAFTLKATVLNYLPKCIRVSVQLEASPAFLAVPVEKEQAPHCICANGRQTVSWAVTPKSLGNVNFTVSAEALESQELCGTEVPSVPEHGRKDTVIKPLLVEPEGLEKETTFNSLLCPSGGEVSEELSLKLPPNVVEESARASVSVLGDILGSAMQNTQNLLQMPYGCGEQNMVLFAPNIYVLDYLNETQQLTPEIKSKAIGYLNTGYQRQLNYKHYDGSYSTFGERYGRNQGNTWLTAFVLKTFAQARAYIFIDEAHITQALIWLSQRQKDNGCFRSSGSLLNNAIKGGVEDEVTLSAYITIALLEIPLTVTHPVVRNALFCLESAWKTAQEGDHGSHVYTKALLAYAFALAGNQDKRKEVLKSLNEEAVKKDNSVHWERPQKPKAPVGHFYEPQAPSAEVEMTSYVLLAYLTAQPAPTSEDLTSATNIVKWITKQQNAQGGFSSTQDTVVALHALSKYGAATFTRTGKAAQVTIQSSGTFSSKFQVDNNNRLLLQQVSLPELPGEYSMKVTGEGCVYLQTSLKYNILPEKEEFPFALGVQTLPQTCDEPKAHTSFQISLSVSYTGSRSASNMAIVDVKMVSGFIPLKPTVKMLERSNHVSRTEVSSNHVLIYLDKVSNQTLSLFFTVLQDVPVRDLKPAIVKVYDYYETDEFAIAEYNAPCSKDLGNADYKDDDDKGASHHHHHH

Protease Inhibition (% of WT); Protease Mixtures, IGD Substrate: 160 % of WT
B2: Variant A2M, bait region SEQ ID NO 129, P01023 24-1474 (protein)
chain: SVSGKPQYMVLVPSLLHTETTEKGCVLLSYLNETVTVSASLESVRGNRSLFTDLEAENDVLHCVAFAVPKSSSNEEVMFLTVQVKGPTQEFKKRTTVMVKNEDSLVFVQTDKSIYKPGQTVKFRVVSMDENFHPLNELIPLVYIQDPKGNRIAQWQSFQLEGGLKQFSFPLSSEPFQGSYKVVVQKKSGGRTEHPFTVEEFVLPKFEVQVTVPKIITILEEEMNVSVCGLYTYGKPVPGHVTVSICRKYSDASDCHGEDSQAFCEKFSGQLNSHGCFYQQVKTKVFQLKRKEYEMKLHTEAQIQEEGTVVELTGRQSSEITRTITKLSFVKVDSHFRQGIPFFGQVRLVDGKGVPIPNKVIFIRGNEANYYSNATTDEHGLVQFSINTTNVMGTSLTVRVNYKDRSPCYGYQWVSEEHEEAHHTAYLVFSPSKSFVHLEPMSHELPCGHTQTVQAHYILNGGTLLGLKKLSFYYLIMAKGGIVRTGTHGLLVKQEDMKGHFSISIPVKSDIAPVARLLIYAVLPTGDVIGDSAKYDVENCLANKVDLSFSPSQSLPASHAHLRVTAAPQSVCALRAVDQSVLLMKPDAELSASSVYNLLPEKDLTGFPGPLNDQDDEDCINRHNVYINGITYTPVSSTNEKDMYSFLEDMGLKAFTNSKIRKPKMCPQLEQYEMHGPEAIPMSIPTEGEGEGEGIPENFFGVSEDLVVQIVEEPHTKLRKYFPETWIWDLVVVNSAGVAEVGVTVPDTITEWKAGAFCLSEDAGLGISSTASLRAFQPFFVELTMPYSVIRGEAFTLKATVLNYLPKCIRVSVQLEASPAFLAVPVEKEQAPHCICANGRQTVSWAVTPKSLGNVNFTVSAEALESQELCGTEVPSVPEHGRKDTVIKPLLVEPEGLEKETTFNSLLCPSGGEVSEELSLKLPPNVVEESARASVSVLGDILGSAMQNTQNLLQMPYGCGEQNMVLFAPNIYVLDYLNETQQLTPEIKSKAIGYLNTGYQRQLNYKHYDGSYSTFGERYGRNQGNTWLTAFVLKTFAQARAYIFIDEAHITQALIWLSQRQKDNGCFRSSGSLLNNAIKGGVEDEVTLSAYITIALLEIPLTVTHPVVRNALFCLESAWKTAQEGDHGSHVYTKALLAYAFALAGNQDKRKEVLKSLNEEAVKKDNSVHWERPQKPKAPVGHFYEPQAPSAEVEMTSYVLLAYLTAQPAPTSEDLTSATNIVKWITKQQNAQGGFSSTQDTVVALHALSKYGAATFTRTGKAAQVTIQSSGTFSSKFQVDNNNRLLLQQVSLPELPGEYSMKVTGEGCVYLQTSLKYNILPEKEEFPFALGVQTLPQTCDEPKAHTSFQISLSVSYTGSRSASNMAIVDVKMVSGFIPLKPTVKMLERSNHVSRTEVSSNHVLIYLDKVSNQTLSLFFTVLQDVPVRDLKPAIVKVYDYYETDEFAIAEYNAPCSKDLGNADYKDDDDKGASHHHHHH

Protease Inhibition (% of WT); Protease Mixtures, IGD Substrate: 75 % of WT
B3: Variant A2M, bait region SEQ ID NO 133, P01023 24-1474 (protein)
chain: SVSGKPQYMVLVPSLLHTETTEKGCVLLSYLNETVTVSASLESVRGNRSLFTDLEAENDVLHCVAFAVPKSSSNEEVMFLTVQVKGPTQEFKKRTTVMVKNEDSLVFVQTDKSIYKPGQTVKFRVVSMDENFHPLNELIPLVYIQDPKGNRIAQWQSFQLEGGLKQFSFPLSSEPFQGSYKVVVQKKSGGRTEHPFTVEEFVLPKFEVQVTVPKIITILEEEMNVSVCGLYTYGKPVPGHVTVSICRKYSDASDCHGEDSQAFCEKFSGQLNSHGCFYQQVKTKVFQLKRKEYEMKLHTEAQIQEEGTVVELTGRQSSEITRTITKLSFVKVDSHFRQGIPFFGQVRLVDGKGVPIPNKVIFIRGNEANYYSNATTDEHGLVQFSINTTNVMGTSLTVRVNYKDRSPCYGYQWVSEEHEEAHHTAYLVFSPSKSFVHLEPMSHELPCGHTQTVQAHYILNGGTLLGLKKLSFYYLIMAKGGIVRTGTHGLLVKQEDMKGHFSISIPVKSDIAPVARLLIYAVLPTGDVIGDSAKYDVENCLANKVDLSFSPSQSLPASHAHLRVTAAPQSVCALRAVDQSVLLMKPDAELSASSVYNLLPEKDLTGFPGPLNDQDDEDCINRHNVYINGITYTPVSSTNEKDMYSFLEDMGLKAFTNSKIRKPKMCPQLEQYEMHGPIPENFFGVEGEGEGESELEGRGSSEDLVVQIVEEPHTKLRKYFPETWIWDLVVVNSAGVAEVGVTVPDTITEWKAGAFCLSEDAGLGISSTASLRAFQPFFVELTMPYSVIRGEAFTLKATVLNYLPKCIRVSVQLEASPAFLAVPVEKEQAPHCICANGRQTVSWAVTPKSLGNVNFTVSAEALESQELCGTEVPSVPEHGRKDTVIKPLLVEPEGLEKETTFNSLLCPSGGEVSEELSLKLPPNVVEESARASVSVLGDILGSAMQNTQNLLQMPYGCGEQNMVLFAPNIYVLDYLNETQQLTPEIKSKAIGYLNTGYQRQLNYKHYDGSYSTFGERYGRNQGNTWLTAFVLKTFAQARAYIFIDEAHITQALIWLSQRQKDNGCFRSSGSLLNNAIKGGVEDEVTLSAYITIALLEIPLTVTHPVVRNALFCLESAWKTAQEGDHGSHVYTKALLAYAFALAGNQDKRKEVLKSLNEEAVKKDNSVHWERPQKPKAPVGHFYEPQAPSAEVEMTSYVLLAYLTAQPAPTSEDLTSATNIVKWITKQQNAQGGFSSTQDTVVALHALSKYGAATFTRTGKAAQVTIQSSGTFSSKFQVDNNNRLLLQQVSLPELPGEYSMKVTGEGCVYLQTSLKYNILPEKEEFPFALGVQTLPQTCDEPKAHTSFQISLSVSYTGSRSASNMAIVDVKMVSGFIPLKPTVKMLERSNHVSRTEVSSNHVLIYLDKVSNQTLSLFFTVLQDVPVRDLKPAIVKVYDYYETDEFAIAEYNAPCSKDLGNADYKDDDDKGASHHHHHH

Protease Inhibition (% of WT); Protease Mixtures, Collagen Substrate: 120 % of WT
Protease Inhibition (% of WT); Protease Mixtures, IGD Substrate: 243 % of WT
B4: Variant A2M, bait region SEQ ID NO 132, P01023 24-1474 (protein)
chain: SVSGKPQYMVLVPSLLHTETTEKGCVLLSYLNETVTVSASLESVRGNRSLFTDLEAENDVLHCVAFAVPKSSSNEEVMFLTVQVKGPTQEFKKRTTVMVKNEDSLVFVQTDKSIYKPGQTVKFRVVSMDENFHPLNELIPLVYIQDPKGNRIAQWQSFQLEGGLKQFSFPLSSEPFQGSYKVVVQKKSGGRTEHPFTVEEFVLPKFEVQVTVPKIITILEEEMNVSVCGLYTYGKPVPGHVTVSICRKYSDASDCHGEDSQAFCEKFSGQLNSHGCFYQQVKTKVFQLKRKEYEMKLHTEAQIQEEGTVVELTGRQSSEITRTITKLSFVKVDSHFRQGIPFFGQVRLVDGKGVPIPNKVIFIRGNEANYYSNATTDEHGLVQFSINTTNVMGTSLTVRVNYKDRSPCYGYQWVSEEHEEAHHTAYLVFSPSKSFVHLEPMSHELPCGHTQTVQAHYILNGGTLLGLKKLSFYYLIMAKGGIVRTGTHGLLVKQEDMKGHFSISIPVKSDIAPVARLLIYAVLPTGDVIGDSAKYDVENCLANKVDLSFSPSQSLPASHAHLRVTAAPQSVCALRAVDQSVLLMKPDAELSASSVYNLLPEKDLTGFPGPLNDQDDEDCINRHNVYINGITYTPVSSTNEKDMYSFLEDMGLKAFTNSKIRKPKMCPQLEQYEMHGPEGEGEGEGIPENFFGVSELEGRGSSEDLVVQIVEEPHTKLRKYFPETWIWDLVVVNSAGVAEVGVTVPDTITEWKAGAFCLSEDAGLGISSTASLRAFQPFFVELTMPYSVIRGEAFTLKATVLNYLPKCIRVSVQLEASPAFLAVPVEKEQAPHCICANGRQTVSWAVTPKSLGNVNFTVSAEALESQELCGTEVPSVPEHGRKDTVIKPLLVEPEGLEKETTFNSLLCPSGGEVSEELSLKLPPNVVEESARASVSVLGDILGSAMQNTQNLLQMPYGCGEQNMVLFAPNIYVLDYLNETQQLTPEIKSKAIGYLNTGYQRQLNYKHYDGSYSTFGERYGRNQGNTWLTAFVLKTFAQARAYIFIDEAHITQALIWLSQRQKDNGCFRSSGSLLNNAIKGGVEDEVTLSAYITIALLEIPLTVTHPVVRNALFCLESAWKTAQEGDHGSHVYTKALLAYAFALAGNQDKRKEVLKSLNEEAVKKDNSVHWERPQKPKAPVGHFYEPQAPSAEVEMTSYVLLAYLTAQPAPTSEDLTSATNIVKWITKQQNAQGGFSSTQDTVVALHALSKYGAATFTRTGKAAQVTIQSSGTFSSKFQVDNNNRLLLQQVSLPELPGEYSMKVTGEGCVYLQTSLKYNILPEKEEFPFALGVQTLPQTCDEPKAHTSFQISLSVSYTGSRSASNMAIVDVKMVSGFIPLKPTVKMLERSNHVSRTEVSSNHVLIYLDKVSNQTLSLFFTVLQDVPVRDLKPAIVKVYDYYETDEFAIAEYNAPCSKDLGNADYKDDDDKGASHHHHHH
